Experimental data published in article PMC12102759.

B1: MXI1 peptide 4-19 (Max-interacting protein 1), 16-mer library wild type / SIN3A PAH2 (SIN3A PAH domain, residues 295-383) (parent)
chain 1: VKMINVQRLLEAAEFL
chain 2: SLQNNQPVEFNHAINYVNKIKNRFQGQPDIYKAFLEILHTYQKEQRNAKEAGGNYTPALTEQEVYAQVARLFKNQEDLLSEFGQFLPDA

Variants of: B1
Experiment: proteomic peptide phage display deep mutational scan (ProP-PD DMS): M13 P8 16-mer library selected against immobilised GST-tagged bait for four days (rounds), NGS of the eluted pools per day and pseudo-replica
Details: with SIN3A PAH2 (SIN3A PAH domain, residues 295-383); bait immobilised on MaxiSorp plates (10 µg), library pre-cleared on GST, 2 h binding at 4 °C, five washes; one round per day, days 1-4; value from days 2 and 3; keep out of graded; scale: average fractional NGS count over selection days 2 and 3

Row | Variant | screen value
1 | chain 1 VKMINVQNLLEAAEFL [chain 1 R8N] | 0.000431
2 | chain 1 VWMINVQRLLEAAEFL [chain 1 K2W] | 0.00198
3 | chain 1 VKMILVQRLLEAAEFL [chain 1 N5L] | 0.00022
4 | chain 1 VKMINVQRLLGAAEFL [chain 1 E11G] | 0
5 | chain 1 VKMINVQILLEAAEFL [chain 1 R8I] | 0.000199
6 | chain 1 VKMINVQRLLEAAEFV [chain 1 L16V] | 7.65e-05
7 | chain 1 VKMMNVQRLLEAAEFL [chain 1 I4M] | 0.00797
8 | chain 1 VKMINVQRLLEAAEFR [chain 1 L16R] | 0.000122
9 | chain 1 VKMINVQRLLEAMEFL [chain 1 A13M] | 8.44e-05
10 | chain 1 VKMINVVRLLEAAEFL [chain 1 Q7V] | 0.00118
11 | chain 1 VKMINVQRLLEAAEFM [chain 1 L16M] | 3.86e-05
12 | chain 1 VKMINVQRLLEAADFL [chain 1 E14D] | 0.0127
13 | chain 1 VKMINVERLLEAAEFL [chain 1 Q7E] | 0
14 | chain 1 VKMINVQGLLEAAEFL [chain 1 R8G] | 0.000403
15 | chain 1 VKMINVMRLLEAAEFL [chain 1 Q7M] | 0
16 | chain 1 VKGINVQRLLEAAEFL [chain 1 M3G] | 9.82e-05
17 | chain 1 VKMDNVQRLLEAAEFL [chain 1 I4D] | 0.00294
18 | chain 1 VKRINVQRLLEAAEFL [chain 1 M3R] | 0
19 | chain 1 VKMINVQRLLEAAEFE [chain 1 L16E] | 7.18e-05
20 | chain 1 VYMINVQRLLEAAEFL [chain 1 K2Y] | 0.00178
21 | chain 1 VKMINVQRLLEAAEFT [chain 1 L16T] | 3.79e-05
22 | chain 1 VKMINVQRLLEAAEFQ [chain 1 L16Q] | 0.000343
23 | chain 1 VKMINVSRLLEAAEFL [chain 1 Q7S] | 0.000125
24 | chain 1 VKMINVPRLLEAAEFL [chain 1 Q7P] | 0

Row | Variant | screen value
25 | chain 1 VKMINVQRLLEAAETL [chain 1 F15T] | 9.49e-05
26 | chain 1 VKWINVQRLLEAAEFL [chain 1 M3W] | 8.38e-05
27 | chain 1 VKMIFVQRLLEAAEFL [chain 1 N5F] | 0.000135
28 | chain 1 VKMINVQRLLEAAMFL [chain 1 E14M] | 0.00144
29 | chain 1 VQMINVQRLLEAAEFL [chain 1 K2Q] | 0.00731
30 | chain 1 VKMINVQRLLEAASFL [chain 1 E14S] | 0.00604
31 | chain 1 VKVINVQRLLEAAEFL [chain 1 M3V] | 0.000204
32 | chain 1 VKMINVGRLLEAAEFL [chain 1 Q7G] | 0
33 | chain 1 VKMINVQWLLEAAEFL [chain 1 R8W] | 0.000195
34 | chain 1 VKMVNVQRLLEAAEFL [chain 1 I4V] | 0.00213
35 | chain 1 VKMTNVQRLLEAAEFL [chain 1 I4T] | 0.000667
36 | chain 1 VKTINVQRLLEAAEFL [chain 1 M3T] | 4.82e-05
37 | chain 1 VKMINVQRLWEAAEFL [chain 1 L10W] | 3.85e-05
38 | chain 1 VKMINMQRLLEAAEFL [chain 1 V6M] | 0.000299
39 | chain 1 VKMINYQRLLEAAEFL [chain 1 V6Y] | 0.000458
40 | chain 1 VKMINVQRLLEADEFL [chain 1 A13D] | 2.4e-05
41 | chain 1 VKMINVQRLTEAAEFL [chain 1 L10T] | 0.000112
42 | chain 1 VKMINVQYLLEAAEFL [chain 1 R8Y] | 0.000148
43 | chain 1 VKMINVQRLLEAAEHL [chain 1 F15H] | 2.84e-05
44 | chain 1 VKMKNVQRLLEAAEFL [chain 1 I4K] | 0
45 | chain 1 VKMINVQKLLEAAEFL [chain 1 R8K] | 0.000316
46 | chain 1 VKMINVQRLLEAAEFI [chain 1 L16I] | 0.00145
47 | chain 1 VKMINVQRLLEAAEFH [chain 1 L16H] | 0.000538
48 | chain 1 VKMINVQRLLEAAEGL [chain 1 F15G] | 4.24e-05

Row | Variant | screen value
49 | chain 1 VLMINVQRLLEAAEFL [chain 1 K2L] | 0.00133
50 | chain 1 VKMINVQRLLEAHEFL [chain 1 A13H] | 0.000246
51 | chain 1 VKAINVQRLLEAAEFL [chain 1 M3A] | 6.73e-05
52 | chain 1 VKMINVQRTLEAAEFL [chain 1 L9T] | 0
53 | chain 1 VKMINVQRLLEAAYFL [chain 1 E14Y] | 0.00266
54 | chain 1 VKMINVQRMLEAAEFL [chain 1 L9M] | 0
55 | chain 1 VKMINVQQLLEAAEFL [chain 1 R8Q] | 0.000659
56 | chain 1 VKMANVQRLLEAAEFL [chain 1 I4A] | 0
57 | chain 1 VKMINVTRLLEAAEFL [chain 1 Q7T] | 0.000284
58 | chain 1 VKMINVQRGLEAAEFL [chain 1 L9G] | 0
59 | chain 1 VKMINVWRLLEAAEFL [chain 1 Q7W] | 0.00193
60 | chain 1 VKMINVQRLLEAAESL [chain 1 F15S] | 4.3e-05
61 | chain 1 VKMINTQRLLEAAEFL [chain 1 V6T] | 0
62 | chain 1 VKMINVQRLLPAAEFL [chain 1 E11P] | 0
63 | chain 1 VKMINVQSLLEAAEFL [chain 1 R8S] | 0.000529
64 | chain 1 VKMINVQALLEAAEFL [chain 1 R8A] | 0.000466
65 | chain 1 VGMINVQRLLEAAEFL [chain 1 K2G] | 0.00453
66 | chain 1 VKLINVQRLLEAAEFL [chain 1 M3L] | 0
67 | chain 1 VKMINQQRLLEAAEFL [chain 1 V6Q] | 2.36e-05
68 | chain 1 VKMINVQRLLEAAEFA [chain 1 L16A] | 0.000201
69 | chain 1 VKMINVQRLLWAAEFL [chain 1 E11W] | 0.00397
70 | chain 1 VKMFNVQRLLEAAEFL [chain 1 I4F] | 0.000274
71 | chain 1 VVMINVQRLLEAAEFL [chain 1 K2V] | 0.000308
72 | chain 1 VKMINVQRLVEAAEFL [chain 1 L10V] | 0

Row | Variant | screen value
73 | chain 1 VKMNNVQRLLEAAEFL [chain 1 I4N] | 0.000113
74 | chain 1 VKMINSQRLLEAAEFL [chain 1 V6S] | 0
75 | chain 1 VNMINVQRLLEAAEFL [chain 1 K2N] | 0.00263
76 | chain 1 VPMINVQRLLEAAEFL [chain 1 K2P] | 0.00116
77 | chain 1 VKDINVQRLLEAAEFL [chain 1 M3D] | 0.000126
78 | chain 1 VKMINVQRLLEAANFL [chain 1 E14N] | 0.000159
79 | chain 1 VKMINVQRLLEAAEIL [chain 1 F15I] | 0
80 | chain 1 VKMIGVQRLLEAAEFL [chain 1 N5G] | 0.000565
81 | chain 1 VKMINVQRLLEAAEFK [chain 1 L16K] | 7.16e-05
82 | chain 1 VKMINVQRLLEAAAFL [chain 1 E14A] | 0.0141
83 | chain 1 VKMINVQRLAEAAEFL [chain 1 L10A] | 0
84 | chain 1 VKMINVQMLLEAAEFL [chain 1 R8M] | 9.12e-05
85 | chain 1 VIMINVQRLLEAAEFL [chain 1 K2I] | 0.00027
86 | chain 1 VKMINVQRLLEAAERL [chain 1 F15R] | 3.85e-05
87 | chain 1 VKMINVQRLLEAAEYL [chain 1 F15Y] | 0.00011
88 | chain 1 VKMINVQRNLEAAEFL [chain 1 L9N] | 0
89 | chain 1 VKMINVQRLLEAKEFL [chain 1 A13K] | 0
90 | chain 1 VKMINVQRLLEAGEFL [chain 1 A13G] | 3.3e-05
91 | chain 1 VMMINVQRLLEAAEFL [chain 1 K2M] | 0.000167
92 | chain 1 VKMINVQLLLEAAEFL [chain 1 R8L] | 5.66e-05
93 | chain 1 VKMINVQRLLEAAEWL [chain 1 F15W] | 0.000134
94 | chain 1 VKMINVQRLLEAAEFS [chain 1 L16S] | 9.12e-05
